The source of these data is the DeepSol protein solubility set.

The nature of the data set: soluble on expression in E. coli; label from the status in PepcDB or PDB records.
Regarding “MGTRNVRPGDRISAAIVAITDDSVFVATGSKVDGVIDRRELEEADGSLPYAVGDRVDLYVTAVNGQEIRLSKGLSGQGGAAVLEEARDSGVPVEGRVTGTCKGGYNVDVLRKRAFCPGSQIDLHQLEDAESVVGQTFQFLVTRVEQHGRNIVVSRRALLERERDAALATFLEGVKEGDVLEGTVTRLAPFGAFVEIAPGVDGMVLEHHHHHH”, the “soluble on expression in E. coli” value is given as “soluble”.

With “MGTSVTPNIFDFLIKIDPFDKLPEPVVESIANSVKVKYLVRGETIGFSALCDQRYLYIIRTGAIEQRTPNGELRARLGQDDQFGFTFLDPLENAEDGYQAEAIEDSLLYLIPHSELKLVSEEHPEFADYFAAQANVRLSSAVKYVCRKEEKGLFFRTVGEIASENIAIVDVNDSIRSVAQTMCGKQRSSCAVVMKEGEIIGLVTDRDMTKSVVAQDMDTNQPIADVMTPNPVLIEDDAKVIQAISLMLQYNIRCLPVVHGKQVKGLLTTTHLVHNHRTQSLFLIEKIKYASSLNALAALKEERQTIFQALVESGVSAEIQGRVMSMIMDAFTRRIIQLNEELLGPPPCDYAWLVAGSHARNEVHMLSDQDSAIVLSDDATEEHKLYFTHLAMRVCNGLAACGYPLCDGKYMAASPKWCQPIRRWKEYYQKWVASPEYNKLLSISVFLEVRAIHGNREFVDQIQQHLHDCIQKSPSFIPALVRDAIDTQPPLGIFNNLVLEKGGENSNTLNIKKYALNLIIDLARIFSLAAGGSLTGTEERFRYAAQHGTLSKDSVENIIGAYRFITQVRFRHQLNAILAGTTPDNHIAPDDFSSFERKHLKDAFKIISELQDVAKLKFVKGA”, the “soluble on expression in E. coli” value is on record as “not soluble”.

Regarding “MGVEIQSPQEQSSYTVEQLVALNPFNPEILPDLENYVNVTSQTYSLEVNLCLLRLYQFEPERMNTHIVARILVKALMAMPTPDFSLCLFLIPERVQMEEQFKSLIVLSHYLETGRFQQFWDEAAKNRHILEAVPGFEQAIQAYASHLLSLSYQKVPRSVLAEAVNMDGASLDKFIEQQVTNSGWIVEKEGGSIVLPQNEFNHPELKKNTGENVPLEHIARIFPILG”, the “soluble on expression in E. coli” value was “not soluble”.

With “MGVITDDVTIAQQALTHYDVSDNASLRLLNLSENATYLVEDGEHQSILRVHRQDYHQPHEIESELDWLAALRTDSDVTVPTVVPARDGRRVVTVDPADSDAVPRHVVHFEMVGGAEPDEESLTLDDFQTLGRITASLHEHSQRWTRPAGFGRFSWDWEHCLGDTPRWGRWQDAEGVGASETALLTRAQDLLHRKLEEYGSGPDRYGLIHADLRLANLLVDSSTPQRTITVIDFDDCGFGWYFYDFGTAVSFIEHDPRLGEWQESWVAGYRSRRELPAADEAMLPSFVFLRRLLLLAWMGSHTHSRESATKAISYAAGSCALAERYLSSDGLRLT”, the “soluble on expression in E. coli” value is “not soluble”.

Consider “MGVVLIDGSTVRSFVDDEEQFKKSVDERFAALDLNKDGVLSRSELRKAFESMRLLESHFGVDVVTPQDELTNLYDSIFEKFDTDQSGSVDLEEFRSEMKKIVLAIADGLGSCPITMVLDDDDDNFLKKAADLEASKLEKASS”, for which the “soluble on expression in E. coli” value was “soluble”.

Consider “MGWTCERVELLKKFWSEGLSASQIAAQLGGVSRNAVIGKVHRLKLPGRGKTAQGGGRVQKALVGVSSSPVRMRRTPSTVLPTNTASCSVGATALKVDVVVEDVTEVDLPEKSNVVVPISRQLNLLQLSENTCRWPVGDPLSPDFHFCGADSGENSPYCAFHAKIAFQPISERRRIRILEHHHHHH”, for which the “soluble on expression in E. coli” value is given as “not soluble”.

As to “MHENKYLTIYHDLISRIRRGEWKAYDKLPSEHELAARYETSRETIRKALHLLSEHGYIQKMKGKGSIVLDVGKYDFPVSGLVSFKELAQTMKQPVRTIVHELAIIKPDRELRQHLRASSKDEVWKVVRVREIGGERIILDKDFFLKKHVPLLTKEICEDSIYEYLETKLHLPISFAKKEISVDEATDEDRRYLDLHGDDRVVVVKNYVYLSDAALFQYTESRHRLDKFRFVDFARRK”, the “soluble on expression in E. coli” value is reported as “not soluble”.

In the case of “MHFETVIGLEVHVELKTDSKMFSPSPAHFGAEPNSNTNVIDLAYPGVLPVVNKRAVDWAMRAAMALNMEIATESKFDRKNYFYPDNPKAYQISQFDQPIGENGYIDIEVDGETKRIGITRLHMEEDAGKSTHKGEYSLVDLNRQGTPLIEIVSEPDIRSPKEAYAYLEKLRSIIQYTGVSDVKMEEGSLRCDANISLRPYGQEKFGTKAELKNLNSFNYVRKGLEYEEKRQEEELLNGGEIGQETRRFDESTGKTILMRVKEGSDDYRYFPEPDIVPLYIDDAWKERVRQTIPELPDERKAKYVNELGLPAYDAHVLTLTKEMSDFFESTIEHGADVKLTSNWLMGGVNEYLNKNQVELLDTKLTPENLAGMIKLIEDGTMSSKIAKKVFPELAAKGGNAKQIMEDNGLVQISDEATLLKFVNEALDNNEQSVEDYKNGKGKAMGFLVGQIMKASKGQANPQLVNQLLKQELDKRMAGDPLEHHHHHH”, the “soluble on expression in E. coli” value was “not soluble”.

As for “MHFKDLGLHDYTLKNLMYENNCCKFYDAVDENNISYVLKFVPSDVTSEGDTFPFVDRFQVKEGVFLVYSSNDFGKEGTDYFTYTGSGGNEVHISGTSSEAGIKPQFIETCHPKHLKRGTKEQEDINSSTSKKSAVINNFSGEKTPNPRPQSSNISERETYVGILNVKCKNKNSSKIRSEKLVSSVIETKHTPGLASILSKEGTTYPNNADGKHISIVNPSSKIYHSSHKQIVKTPIPKSGLSPIERCPFNGQNIKCYSPRPLDHESPQRDFNNNFQLRILKSSVLQRRQSTQNS”, the “soluble on expression in E. coli” value is listed as “soluble”.

Turning to “MHFYKYGVLINQLSDSFEWRVAFLDGSVSDHCCITVPSEKFNFPPTPGATVKAKFEHANSFLPSLVAQCGSFEWFRDVTVVNSKVVIFAIVHFSNECLERDPFKINGMDYSIIENENTDFQKIVLPTRVLQTSITSRSNLQNTDTPFIYRIGVCWEPISFENGVTVNWRYYADFPITPIFELYYRETTLPYIAESMVYGVLEGVVIAENDHGALFWTPKMGCAILPSTSLDTPMPSLGSVHVILVKRCIPENSFGFSCSYELLSSFRSTEWPNLKVITDQITRKVYIEANASCRSMMENQDFPSMNVPHIGKVFRGLQQYRDKLSAGHLYDFRMEFQKEEGSFVPTIVDLCLEEDEMVDCRVVYISNETSTYFAVLDPSSNSFDRFKQSIDYIAIPFRVLFCANGVHVKNEELLLNSYKVRVRVPRNRHDVVNAIHVEHVIQSPKDPAYFITNGSVWLRTTVKFQNASRYELLCPLLEQKIIDVNGVTAAMSLTQEFTVHAQFVLMERNVPVFVVRQLASTVREHPRTTNYPSRSLNLSYEVSGALARTNPNGQLSAADNNIVLINDSISLDHNLPDTGEYPTILNESSFERQLLFDNQSIADSASTSGDFILTESVYESSSAASTCTVIDRNDARFSALNDDSNILISESWLDSTNQHSETTMDTPEIITESFYESTHDQASSRASTVDRLASDVDKISIGRPDYSPPPRRRIFGYSTPGDRVRPRNSYGSSSSGSLNGRPKRRAPYGFRQIRNITPHNVLLRDIIYNNINNRKMFVEQNKNAILKCWNRLPLAQVTRTTKLSVTVIAVESIKFPPSFDETCIKGLVRFVALGVGVDINLRNMSIVVPIGGKFNNLPKSFQLGETYRVYHFSSKVDRICRLGGFSFGLKGGMRNEEPPDRNNWFSDPQTVNGRDGQSYLRCTVNAERPANAEIESDFFELWSTTALPGFIIVEKVPQLMKHLNEELLDPDVHSRFTYSCVIEPLAGGPVEASILKDLKYDEEFCIFWRLVVEFSDTVPLPRLIIKSKIYVPPPPVVPVYVTPFTVNDFGCWETHRINSILHQARIDRLRAAGHMRVKMLDGPDMKPEIEIRKVDVNTRREKMFTAFDALLEKLPQLHSEGILEYVLEDDLREKIEYLLPMTDDNHKFQFRARNDSLTIGLNYLTDMLTKGKVYKMLYEKQEYVPLLKVLSDCIGLNTTYIKKTDAVTMMLQFMYRNELHTYM”, the “soluble on expression in E. coli” value is given as “not soluble”.

For “MHGESPIKRRESRKIWVGSVPVGGDAPIAVQSMTNSDTNDVAATVAQINRLEAAGVDIVRISVPDMDAAEAFGRIKQLVKVPLVADIHFDYRIALRVAELGVDCLRINPGNIGREDRVRAVVDAARDRGIPIRIGVNAGSLEKDLQKKYGEPTPEALVESALRHVEHLERLNFKDFKVSVKASDVFMAVAAYRLLAKQIVQPLHLGITEAGGLRSGTVKSAVGLGMLLAEGIGDTIRISLAADPVEEVKVGYDILKSLRLRSRGINFIACPSCSRQNFDVVKTMNELEGRLEDLLVPLDVAVIGCVVNGPGEAKEAHIGLTGGTPNLIYIDGKPAQKLTNDNLVDELERLIREKAAEKTAADASVIVRGLEHHHHHH”, the “soluble on expression in E. coli” value is recorded as “not soluble”.

Take “MHGTCLSGLYPEPFTHNSHDYPHFNIYISFGGPKYCITALNTYVIPLLHHILTTQFIHTYFNIPTKSPPKSPKHKNYLSFNFTK”: the “soluble on expression in E. coli” value is “soluble”.

Take “MHGTCLSGLYPVPFTHNSHDYPHFNIYISFGGPKYCITALNTYVTPLLHRILTTQFIYTYANITKKSPLKSPKHKNILFFNHNT”: the “soluble on expression in E. coli” value is “soluble”.

With “MHHHHHHGKPIPNPLLGLDSTENLYFQGIDPFTKAYAFGFPKIGEKREFKKALEDFWKGKITEEQFEEEMNKLRMYMVENYRKNVDVIPSNELSYYDFVLDTAVMVGAVPERFGEYRGLSTYFDMARGGKALEMTKFFNTNYHYLVPEIETEEFYLLENKPLEDYLFFKSKGIETAPWVIGPFTFLYLSKRNGEWIRRPNQMEKLLESLVSVYKEVFEKLVENGCKEILVNEPAFVCDLEKAHWDLILNVYRELSEFPLTVFTYYDSVSDYEACVSLPVKRLHFDFVSNEENLKNLEKHGFPEDKKLVAGVINGRQPWKVDLRKVASLVEKLGASAISNSCPLFHLPVTLELENNLPGGLKEKLAFAKEKLEELKMLKDFLEGKTFDLPNVSFEDFAVDLQAVERVRNLPEDSFRREKEYTERDRIQRERLNLPLFPTTTIGSFPQTPEVRKMRSKYRKGEISKEEYEAFIKEQIKKAIELQEEIGLDVLVHGEFERTDMVEFFAEKLNGIATTQNGWVLSYGSRCYRPPIIYGTVTRPEPMTLKEITYAQSLTEKPVKGMLTGPVTIMSWSYYREDIPEREIAYQIALAINEEVKDLEEAGIKIVQIDEPAFREKAPIKKSKWPEYFEWAINAFNLAANARPETQIHAHMCYSDFNEIIEYIHQLEFDVISIEASRSKGEIISAFENFKGWIKQIGVGVWDIHSPAVPSINEMREIVERVLRVLPKELIWINPDCGLKTRNWDEVIPSLRNMVALAKEMREKFES”, the “soluble on expression in E. coli” value is “soluble”.

On to “MHHHHHHMKEVVSSVYKEILVKLGLTEDRIETLEMKGGIIEDEFDGIRYVRFKDSAGKLRRGTVVIDEEYVIPGFPHIKRIINLRSGIRRIFKRGEFYVEEKVDGYNVRVVMYKGKMLGITRGGFICPFTTERIPDFVPQEFFKDNPNLILVGEMAGPESPYLVEGPPYVKEDIQFFLFDVQEIKTGRSLPVEERLKIAEEYGINHVEVFGKYTKDDVDELYQLIERLSKEGREGIIMKSPDMKKIVKYVTPYANINDIKIGARVFYELPPGYFTSRISRLAFYLAEKRIKGEEFERVAKELGSALLQPFVESIFDVEQEEDIHELFKVRVKRIETAYKMVTHFEKLGLKIEIVDIEEIKDGWRITFKRLYPDATNEIRELIGGKAFVD”, for which the “soluble on expression in E. coli” value was “soluble”.

Take “MHHHHHHSSGRENLYFQGNFDYMFKLLIIGNSSVGKTSFLFRYADDTFTPAFVSTVGIDFKVKTVYRHEKRVKLQIWDTAGQERYRTITTAYYRGAMGFILMYDITNEESFNAVQDWATQIKTYSWDNAQVILVGNKCDMEEERVVPTEKGQLLAEQLGFDFFEASAKENISVRQAFERLVDAICDKMSDS”: the “soluble on expression in E. coli” value is recorded as “soluble”.
